Experimental data published in patent US8349583B2, “Distinguishing cells in a sample by inactivating extracellular enzyme before releasing intracellular enzyme” (priority 2005, dated 2013).

Experiments:
[1] = tested on: bacterial adenylate kinase; assay: AK reduction by different proteases over time for different organisms; type: biochemical; details: 37° C., 10 to 120 minutes; trypsin 1000, papain 10, proteinase K 2.5, chymotrypsin 1 U/ml
Description: • 1. Bacteria were scraped from plates and inoculated in approximately 20 ml of broth only. These were incubated overnight at 37° C. • 2. 10× stocks of the enzymes were prepared in broth only: • a. 10 mg of 16,000 U/mg Trypsin added to 16 ml of broth to give 10,000 U/ml (10×) stock. • b. 25 mg of 4 U/mg Papain added to 1 ml of broth to give 100 U/ml (10×) stock. • c. 10 mg of 7.5 U/mg proteinase K added to 3 ml of broth to give a 25 U/ml (10×) stock. • d. 10.5 ul of 239 U/ml chymotrypsin added to 239.5 ul of broth to give a 10 U/ml stock. • 3. The inoculums were then centrifuged at approximately 14030 RCF for one hour. • 4. The supernatant was then taken, tested for adenylate kinase activity (described below), and diluted with broth only if needed to give about 10^5 cpm/ml. • 5. The supernatant was then assayed for adenylate kinase activity at time point zero in triplicate and averaged. • 6. 1.5 ml solutions of the supernatants were prepared with the correct concentration of enzyme, or broth for control. These were incubated at 37° C. • 7. Samples were then taken and assayed in triplicate for adenylate kinase activity at 10, 30, 60 and 120 minutes. • 8. The triplicates were averaged, and normalised by dividing by the time point zero average. Adenylate Kinase Assay (AK Only No Cells) • 1. […] added to a cuvette. • 2. 50 μl of reagent 1 (ADP only; no lysis agent) added and vortexed briefly. • 3. After 5 minutes, the cuvette was placed into a luminometer. • 4. 50 μl of reagent 2 (dilution and luciferin/luciferase) firmly added directly to the sample. • 5. RLU read immediately.
The results are shown in FIG. 19 (S. epidermis), 20 (S. aureus), 21 (E. coli), 22 (E. faecalis), 23 (P. aeruginosa) and 24 (MRSA). Trypsin is still the protease of choice due to its consistency with both Gram +ve and Gram −ve bacteria.

AK in lysed blood = assay: AK reduction by trypsin over time, saponin-lysed blood; type: biochemical; details: 10^−3 dilution of lysed blood, 5000, 1000, 200 U/ml trypsin, 37° C., up to 1 hour
Description: (§1) Purified AK (B. stearothermophilus) or a 10^−3 dilution of saponin-lysed blood was incubated for 1 hour at 37° C. in 5000, 1000, 200 and 0 (control) U/ml trypsin diluted in MH broth (‘trypsin/MH’). Aliquots were assayed at time 0, 15 minutes, 30 minutes and 1 hour.

E. coli [2] = assay: Trypsin digestion of intracellular bacterial AK, E. coli; type: cell-based; details: for Mean RLU: assayed immediately
Description: (§2) Experimental work used adenylate kinase-generated ATP to drive a luciferin/luciferase activity, giving results in RLUs as a quantitative measure of initial ATP levels. All AK assays were performed at pH 7.5, and 37° C. Results of the assay were read at ambient temperature.
(§3) Concentrations of 10^4 and 10^5 cfu/ml E. coli and E. faecalis where spiked into MH broth containing 1000, 200 and 0 (control) U/ml trypsin. These were assayed immediately.

[3] = target: Purified AK (B. stearothermophilus) (Geobacillus stearothermophilus, UniProt P27142); assay: AK reduction by trypsin over time, purified bacterial AK; type: biochemical; details: 5000, 1000, 200 U/ml trypsin, 37° C., up to 1 hour; compared with lysed blood AK
Description: as §1

organisms (11 species) = assay: Effect of trypsin on organisms (bacterial growth); type: cell-based; details: trypsin 1000 and 200 U/ml, 10^3 cfu/ml, 37° C., 3 hours
Description: FIGS. 4 to 14 show bacterial growth in the presence of AK. Bacteria were: (4) E. coli; (5) E. faecalis; (6) P. aeruginosa; (7) S. aureus; (8) K. pneumoniae; (9) E. cloacae; (10) K. oxytoca; (11) P. vulgaris; (12) A. baumanii; (13) S. enteritidis; and (14) S. narcescens.
To assess whether trypsin affects bacterial growth, 10^3 cfu/ml organisms were spiked into 1000, 200 and 0 (control) U/ml trypsin/MH samples. These mixtures were incubated at 37° C. for 3 hours, and aliquots were assayed at time 0, 1, 2 and 3 hours.

[4] = target: bioluminescent system (luciferin/luciferase) (Photinus pyralis, UniProt P08659); assay: Trypsin control: effect of trypsin on the bioluminescent system; type: biochemical
Description: as §2
In preliminary experiments, the effect of trypsin on the bioluminescent system was assessed. Samples of trypsin at different concentrations, diluted in Mueller-Hinton (MH^+) broth, were spiked with ATP.

[5] = tested on: lysed blood AK background; assay: Lysed blood background with trypsin, negative (no organisms); type: biochemical; details: 10^−1 lysed blood, 1000 U/ml trypsin
Description: (§4) Approximately 10^2 cfu/ml organisms were spiked into a 10^−1 dilution of lysed blood in MH, containing 1000 U/ml trypsin. This was incubated at 37° C. for 4 hours, and aliquots were assayed at time 0, 1, 2, 3 and 4 hours.

P. aeruginosa = assay: Organism growth against lysed blood background using trypsin, P. aeruginosa; type: cell-based; details: P. aeruginosa 10^2 cfu/ml, 10^−1 lysed blood, 1000 U/ml trypsin
Description: as §4

E. coli [6] = assay: Organism growth against lysed blood background using trypsin, E. coli; type: cell-based; details: E. coli 10^2 cfu/ml, 10^−1 lysed blood, 1000 U/ml trypsin
Description: as §4

E. faecalis [7] = assay: Trypsin digestion of intracellular bacterial AK, E. faecalis; type: cell-based; details: assayed immediately
Description: as §2, §3

E. faecalis [8] = assay: Organism growth against lysed blood background using trypsin, E. faecalis; type: cell-based; details: E. faecalis 10^2 cfu/ml, 10^−1 lysed blood, 1000 U/ml trypsin
Description: as §4

[9] = tested on: AK in saponin-lysed blood; assay: Trypsin digestion of AK in various concentrations of lysed blood; type: biochemical; details: 1000 U/ml trypsin
Description: Saponin-lysed blood was serially diluted and mixed with 1000 or 200 U/ml trypsin/MH. The mixtures were incubated at 37° C. for 4 hours, and aliquots assayed at time 0, 1, 2, 3 and 4 hours.

Sequence of bioluminescent system (luciferin/luciferase) (P08659 whole entry): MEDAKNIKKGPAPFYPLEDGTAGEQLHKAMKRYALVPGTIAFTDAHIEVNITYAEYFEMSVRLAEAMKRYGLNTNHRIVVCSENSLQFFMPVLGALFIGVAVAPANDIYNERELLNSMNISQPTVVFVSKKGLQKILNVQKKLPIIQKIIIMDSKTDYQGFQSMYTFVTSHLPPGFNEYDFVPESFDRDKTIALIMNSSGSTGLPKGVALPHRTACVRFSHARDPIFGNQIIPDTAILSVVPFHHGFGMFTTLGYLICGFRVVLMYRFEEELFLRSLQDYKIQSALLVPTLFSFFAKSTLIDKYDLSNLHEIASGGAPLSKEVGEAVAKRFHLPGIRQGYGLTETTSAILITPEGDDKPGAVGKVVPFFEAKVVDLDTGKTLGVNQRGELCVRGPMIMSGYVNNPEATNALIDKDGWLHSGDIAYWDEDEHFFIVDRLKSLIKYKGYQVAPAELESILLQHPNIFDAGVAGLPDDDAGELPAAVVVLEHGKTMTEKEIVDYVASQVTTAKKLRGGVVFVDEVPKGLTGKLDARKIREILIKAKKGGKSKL
Sequence of Purified AK (B. stearothermophilus) (P27142 whole entry): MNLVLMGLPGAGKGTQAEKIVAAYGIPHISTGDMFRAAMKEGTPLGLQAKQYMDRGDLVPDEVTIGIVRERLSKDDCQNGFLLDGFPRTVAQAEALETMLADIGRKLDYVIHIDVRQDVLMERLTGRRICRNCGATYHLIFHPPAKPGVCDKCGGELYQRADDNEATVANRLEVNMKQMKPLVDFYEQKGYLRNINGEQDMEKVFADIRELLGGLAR

B1: Papain (protein, UniProt P00784 134-345, looked up)
Papain: IPEYVDWRQKGAVTPVKNQGSCGSCWAFSAVVTIEGIIKIRTGNLNEYSEQELLDCDRRSYGCNGGYPWSALQLVAQYGIHYRNTYPYEGVQRYCRSREKGPYAAKTDGVRQVQPYNEGALLYSIANQPVSVVLEAAGKDFQLYRGGIFVGPCGNKVDHAVAAVGYGPNYILIKNSWGTGWGENGYIRIKRGTGNSYGVCGLYTSSFYPVKN
notes: protease, 4 U/mg, used at 10 U/ml
[1]
  degradation of AK extracted from different organisms: degraded the AK in a similar manner to trypsin

B2: trypsin (protein, UniProt P00761 9-231, looked up)
Trypsin: IVGGYTCAANSIPYQVSLNSGSHFCGGSLINSQWVVSAAHCYKSRIQVRLGEHNIDVLEGNEQFINAAKIITHPNFNGNTLDNDIMLIKLSSPATLNSRVATVSLPRSCAAAGTECLISGWGNTKSSGSSYPSLLQCLKAPVLSDSSCKSSYPGQITGNMICVGFLEGGKDSCQGDSGGPVVCNGQLQGIVSWGYGCAQKNKPGVYTKVCNYVNWIQQTIAAN
AK in lysed blood
  digestion of AK in lysed blood by trypsin: digested rapidly
E. coli [2]; E. coli 10^4 cfu/ml, trypsin 200 U/ml
  Mean RLU: 7,197 RLU
E. coli [2]; E. coli 10^4 cfu/ml, trypsin 1000 U/ml
  Mean RLU: 12,694 RLU
E. coli [2]; E. coli 10^5 cfu/ml, trypsin 200 U/ml
  Mean RLU: 65,452 RLU
E. coli [2]; E. coli 10^5 cfu/ml, trypsin 1000 U/ml
  Mean RLU: 106,552 RLU
E. coli [2]; E. coli and E. faecalis, trypsin 200 and 1000 U/ml
  AK signal from lysed bacteria lost during the AK reaction due to trypsin digestion: 10-20%
[3]
  degradation of purified bacterial AK by trypsin: does not occur as dramatically or rapidly as the AK from lysed blood
Organisms (11 species)
  effect on bacterial growth: minimal (if any) effect on the organisms
[1]
  degradation of AK extracted from different organisms: degraded the AK
[4]; +ATP, trypsin 200 U/ml in MH broth
  Mean RLU: 68,036 RLU
[4]; +ATP, trypsin 1000 U/ml in MH broth
  Mean RLU: 64,005 RLU
[4]; +ATP, trypsin 5000 U/ml in MH broth
  Mean RLU: 81,276 RLU
[4]; No ATP, trypsin 200 U/ml in MH broth
  Mean RLU: 646 RLU
[4]; No ATP, trypsin 1000 U/ml in MH broth
  Mean RLU: 538 RLU
[4]; No ATP, trypsin 5000 U/ml in MH broth
  Mean RLU: 414 RLU
[4]; no ATP
  background ATP-generating activity associated with trypsin: little or no background ATP-generating activity
[4]; trypsin 5000 U/ml
  effect on bioluminescence signal: boosted
[4]; trypsin levels ≦1000 U/ml
  effect on the bioluminescence reaction: minimal/no effect on the bioluminescence reaction
[5]; 1 hr
  Mean RLU: 7,864 RLU
[5]; 2 hrs
  Mean RLU: 3,148 RLU
[5]; 3 hrs
  Mean RLU: 2,001 RLU
[5]; 4 hrs
  Mean RLU: 1,572 RLU
[5]; Time 0
  Mean RLU: overload
P. aeruginosa; 1 hr
  Mean RLU: 8,852 RLU
P. aeruginosa; 2 hrs
  Mean RLU: 3,582 RLU
P. aeruginosa; 3 hrs
  Mean RLU: 3,332 RLU
P. aeruginosa; 4 hrs
  Mean RLU: 8,123 RLU
P. aeruginosa; Time 0
  Mean RLU: overload
E. coli [6]; 1 hr
  Mean RLU: 9,605 RLU
E. coli [6]; 2 hrs
  Mean RLU: 7,460 RLU
E. coli [6]; 3 hrs
  Mean RLU: 41,121 RLU
E. coli [6]; 4 hrs
  Mean RLU: 353,541 RLU
E. coli [6]; Time 0
  Mean RLU: overload
E. faecalis [7]; E. faecalis 10^4 cfu/ml, trypsin 200 U/ml
  Mean RLU: 13,310 RLU
E. faecalis [7]; E. faecalis 10^4 cfu/ml, trypsin 1000 U/ml
  Mean RLU: 17,369 RLU
E. faecalis [7]; E. faecalis 10^5 cfu/ml, trypsin 200 U/ml
  Mean RLU: 87,059 RLU
E. faecalis [7]; E. faecalis 10^5 cfu/ml, trypsin 1000 U/ml
  Mean RLU: 103,959 RLU
E. faecalis [8]; 1 hr
  Mean RLU: 10,099 RLU
E. faecalis [8]; 2 hrs
  Mean RLU: 4,939 RLU
E. faecalis [8]; 3 hrs
  Mean RLU: 15,587 RLU
E. faecalis [8]; 4 hrs
  Mean RLU: 106,762 RLU
E. faecalis [8]; Time 0
  Mean RLU: overload
[9]; 10^−1 dilution of blood, 4 hours
  reduction of background: 25,000 fold
[9]; 10^−1 dilution of blood, 4 hours, from approximately 100 million RLU
  background RLU after trypsin digestion: 4,000 RLU
[9]
  time in which the vast majority of AK digestion occurs: ≤ 2 h

B3: proteinase K (protein, UniProt P06873 106-384, looked up)
Proteinase K: AAQTNAPWGLARISSTSPGTSTYYYDESAGQGSCVYVIDTGIEASHPEFEGRAQMVKTYYYSSRDGNGHGTHCAGTVGSRTYGVAKKTQLFGVKVLDDNGSGQYSTIIAGMDFVASDKNNRNCPKGVVASLSLGGGYSSSVNSAAARLQSSGVMVAVAAGNNNADARNYSPASEPSVCTVGASDRYDRRSSFSNYGSVLDIFGPGTSILSTWIGGSTRSISGTSMATPHVAGLAAYLMTLGKTTAASACRYIADTANKGDLSNIPFGTVNLLAYNNYQA
notes: protease, 7.5 U/mg, used at 2.5 U/ml
[1]
  degradation of AK extracted from different organisms: degraded the AK in a similar manner to trypsin
